Assay results reported in publication PMC2756588.

T1: Abp1, P15891
T1 sequence (P15891 535-592, looked up): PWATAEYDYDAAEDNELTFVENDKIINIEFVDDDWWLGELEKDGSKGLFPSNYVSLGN

T2: Bbc1, P47068
T2 sequence (P47068 1-78, looked up): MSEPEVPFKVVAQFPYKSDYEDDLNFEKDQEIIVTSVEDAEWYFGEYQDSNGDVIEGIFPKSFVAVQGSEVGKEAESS

T3: Boi1, P38041
T3 sequence (P38041 1-86, looked up): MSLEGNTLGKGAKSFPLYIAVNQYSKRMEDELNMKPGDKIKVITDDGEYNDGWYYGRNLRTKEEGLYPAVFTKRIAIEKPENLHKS

T4: Boi2, P39969
T4 sequence (P39969 32-116, looked up): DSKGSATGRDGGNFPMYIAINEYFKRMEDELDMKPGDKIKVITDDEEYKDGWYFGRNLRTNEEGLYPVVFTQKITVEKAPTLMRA

T5: Bud14, P27637
T5 sequence (P27637 247-328, looked up): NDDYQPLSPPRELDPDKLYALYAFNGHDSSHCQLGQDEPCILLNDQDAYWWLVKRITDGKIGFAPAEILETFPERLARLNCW

T6: Bzz1-1, P38822
T6 sequence (P38822 478-572, looked up): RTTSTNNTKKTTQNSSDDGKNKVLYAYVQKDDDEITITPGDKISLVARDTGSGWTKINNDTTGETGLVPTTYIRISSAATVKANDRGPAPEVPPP

T7: Bzz1-2, P38822
T7 sequence (P38822 568-633, looked up): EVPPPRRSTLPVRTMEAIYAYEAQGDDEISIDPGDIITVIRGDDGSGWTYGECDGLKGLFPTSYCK

T8: Cdc25, P04821
T8 sequence (P04821 50-136, looked up): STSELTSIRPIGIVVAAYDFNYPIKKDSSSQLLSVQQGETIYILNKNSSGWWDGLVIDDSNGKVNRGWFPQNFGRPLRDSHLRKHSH

T9: Cyk3, Q07533
T9 sequence (Q07533 1-83, looked up): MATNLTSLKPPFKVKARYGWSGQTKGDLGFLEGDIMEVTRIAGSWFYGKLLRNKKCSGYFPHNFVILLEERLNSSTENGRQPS

T10: Fus1, P11710
T10 sequence (P11710 432-512, looked up): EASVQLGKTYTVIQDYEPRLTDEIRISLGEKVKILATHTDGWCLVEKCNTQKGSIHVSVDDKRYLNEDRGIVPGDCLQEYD

T11: Hof1, Q05080
T11 sequence (Q05080 590-669, looked up): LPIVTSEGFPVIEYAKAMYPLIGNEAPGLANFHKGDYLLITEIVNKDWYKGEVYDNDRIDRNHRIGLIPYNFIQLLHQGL

T12: Hse1, P38753
T12 sequence (P38753 208-285, looked up): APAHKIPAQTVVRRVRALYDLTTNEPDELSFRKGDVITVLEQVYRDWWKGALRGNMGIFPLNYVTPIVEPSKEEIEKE

T13: Lsb1, P53281
T13 sequence (P53281 45-122, looked up): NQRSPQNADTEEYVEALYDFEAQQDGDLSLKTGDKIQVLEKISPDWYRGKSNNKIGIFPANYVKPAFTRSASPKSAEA

T14: Lsb3, P43603
T14 sequence (P43603 385-451, looked up): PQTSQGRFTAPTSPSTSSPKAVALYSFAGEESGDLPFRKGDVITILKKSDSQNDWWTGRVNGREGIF

T15: Lsb4, P32793
T15 sequence (P32793 402-468, looked up): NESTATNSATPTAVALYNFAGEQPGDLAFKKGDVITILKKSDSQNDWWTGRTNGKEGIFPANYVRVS

T16: Myo5, Q04439
T16 sequence (Q04439 1072-1160, looked up): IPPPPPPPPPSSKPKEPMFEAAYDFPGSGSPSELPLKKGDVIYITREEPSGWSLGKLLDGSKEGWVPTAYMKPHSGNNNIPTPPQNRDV

T17: Nbp2, Q12163
T17 sequence (Q12163 103-180, looked up): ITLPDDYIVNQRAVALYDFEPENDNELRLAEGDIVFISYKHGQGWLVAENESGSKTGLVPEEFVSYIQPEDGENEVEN

T18: Pex13, P80667
T18 sequence (P80667 295-386, looked up): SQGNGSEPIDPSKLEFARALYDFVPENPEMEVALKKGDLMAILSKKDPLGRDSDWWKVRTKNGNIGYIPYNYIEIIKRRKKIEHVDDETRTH

T19: Pin3, Q06449
T19 sequence (Q06449 53-122, looked up): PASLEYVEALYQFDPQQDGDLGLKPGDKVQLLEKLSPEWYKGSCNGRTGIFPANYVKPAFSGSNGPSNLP

T20: Sla1-2, P32790
T20 sequence (P32790 60-140, looked up): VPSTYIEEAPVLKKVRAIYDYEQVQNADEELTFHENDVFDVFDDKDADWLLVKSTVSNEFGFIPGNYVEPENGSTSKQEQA

T21: Sla1-3, P32790
T21 sequence (P32790 344-424, looked up): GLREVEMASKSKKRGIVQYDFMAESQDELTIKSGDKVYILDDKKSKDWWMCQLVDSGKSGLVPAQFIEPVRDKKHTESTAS


These binders were tested against T1, Abp1, P15891 (assay: SPOT array). Details: median of control spots 935.

Binder | SPOT intensity
ISNFVPPNLPMRRFK | 129
EEEEEHPPLPARRKS | 0
DDEDVPPQLPTRTKS | 0

Each binder was assayed against T2, Bbc1, P47068 (assay: SPOT array). Details: median of control spots 796.

Binder | SPOT intensity
ISNFVPPNLPMRRFK | 199
EEEEEHPPLPARRKS | 9
DDEDVPPQLPTRTKS | 5

These binders were tested against Bem1-1, P29366 (assay: SPOT array). Details: median of control spots 4282.
Bem1-1, P29366, sequence (P29366 55-141): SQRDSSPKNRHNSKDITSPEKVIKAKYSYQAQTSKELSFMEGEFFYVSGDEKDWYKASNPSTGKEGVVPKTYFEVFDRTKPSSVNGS

Binder | SPOT intensity
ISNFVPPNLPMRRFK | 1
EEEEEHPPLPARRKS | 0
DDEDVPPQLPTRTKS | 0

Each binder was assayed against Bem1-2, P29366 (assay: SPOT array). Details: median of control spots 4347.
Bem1-2, P29366, sequence (P29366 139-227): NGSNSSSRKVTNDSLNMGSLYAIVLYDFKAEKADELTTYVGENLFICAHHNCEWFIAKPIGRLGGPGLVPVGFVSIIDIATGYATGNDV

Binder | SPOT intensity
ISNFVPPNLPMRRFK | 7
EEEEEHPPLPARRKS | 3
DDEDVPPQLPTRTKS | 3

What follows are binders tested against T3, Boi1, P38041 (assay: SPOT array). Details: median of control spots 1162.

Binder | SPOT intensity
ISNFVPPNLPMRRFK | 0
EEEEEHPPLPARRKS | 0
DDEDVPPQLPTRTKS | 2

The binders below were run against T4, Boi2, P39969 (assay: SPOT array). Details: median of control spots 1161.

Binder | SPOT intensity
ISNFVPPNLPMRRFK | 0
EEEEEHPPLPARRKS | 0
DDEDVPPQLPTRTKS | 1

What follows are binders tested against T5, Bud14, P27637 (assay: SPOT array). Details: median of control spots 956.

Binder | SPOT intensity
ISNFVPPNLPMRRFK | 8
EEEEEHPPLPARRKS | 0
DDEDVPPQLPTRTKS | 1

Each binder was assayed against T6, Bzz1-1, P38822 (assay: SPOT array). Details: median of control spots 4446.

Binder | SPOT intensity
ISNFVPPNLPMRRFK | 1
EEEEEHPPLPARRKS | 4
DDEDVPPQLPTRTKS | 0

What follows are binders tested against T7, Bzz1-2, P38822 (assay: SPOT array). Details: median of control spots 4538.

Binder | SPOT intensity
ISNFVPPNLPMRRFK | 19
EEEEEHPPLPARRKS | 3
DDEDVPPQLPTRTKS | 0

Each binder was assayed against T8, Cdc25, P04821 (assay: SPOT array). Details: median of control spots 969.

Binder | SPOT intensity
ISNFVPPNLPMRRFK | 0
EEEEEHPPLPARRKS | 0
DDEDVPPQLPTRTKS | 0

The binders below were run against T9, Cyk3, Q07533 (assay: SPOT array). Details: median of control spots 1451.

Binder | SPOT intensity
ISNFVPPNLPMRRFK | 0
EEEEEHPPLPARRKS | 0
DDEDVPPQLPTRTKS | 0

These binders were tested against T10, Fus1, P11710 (assay: SPOT array). Details: median of control spots 1200.

Binder | SPOT intensity
ISNFVPPNLPMRRFK | 0
EEEEEHPPLPARRKS | 0
DDEDVPPQLPTRTKS | 0

These binders were tested against GST (assay: SPOT array). Details: median of control spots 978.

Binder | SPOT intensity
ISNFVPPNLPMRRFK | 1
EEEEEHPPLPARRKS | 0
DDEDVPPQLPTRTKS | 1

What follows are binders tested against T11, Hof1, Q05080 (assay: SPOT array). Details: median of control spots 4086.

Binder | SPOT intensity
ISNFVPPNLPMRRFK | 5
EEEEEHPPLPARRKS | 0
DDEDVPPQLPTRTKS | 0

Each binder was assayed against T12, Hse1, P38753 (assay: SPOT array). Details: median of control spots 1727.

Binder | SPOT intensity
ISNFVPPNLPMRRFK | 72
EEEEEHPPLPARRKS | 0
DDEDVPPQLPTRTKS | 2

What follows are binders tested against T13, Lsb1, P53281 (assay: SPOT array). Details: median of control spots 388.

Binder | SPOT intensity
ISNFVPPNLPMRRFK | 63
EEEEEHPPLPARRKS | 32
DDEDVPPQLPTRTKS | 58

Each binder was assayed against T14, Lsb3, P43603 (assay: SPOT array). Details: median of control spots 406.

Binder | SPOT intensity
ISNFVPPNLPMRRFK | 588
EEEEEHPPLPARRKS | 683
DDEDVPPQLPTRTKS | 556

What follows are binders tested against T15, Lsb4, P32793 (assay: SPOT array). Details: median of control spots 397.

Binder | SPOT intensity
ISNFVPPNLPMRRFK | 452
EEEEEHPPLPARRKS | 590
DDEDVPPQLPTRTKS | 897

The binders below were run against Myo3, P36006 (assay: SPOT array). Details: median of control spots 468.

Binder | SPOT intensity
ISNFVPPNLPMRRFK | 59
EEEEEHPPLPARRKS | 0
DDEDVPPQLPTRTKS | 0

The binders below were run against T16, Myo5, Q04439 (assay: SPOT array). Details: median of control spots 471.

Binder | SPOT intensity
ISNFVPPNLPMRRFK | 37
EEEEEHPPLPARRKS | 0
DDEDVPPQLPTRTKS | 0

What follows are binders tested against T17, Nbp2, Q12163 (assay: SPOT array). Details: median of control spots 357.

Binder | SPOT intensity
ISNFVPPNLPMRRFK | 1
EEEEEHPPLPARRKS | 1
DDEDVPPQLPTRTKS | 0

These binders were tested against T18, Pex13, P80667 (assay: SPOT array). Details: median of control spots 1341.

Binder | SPOT intensity
ISNFVPPNLPMRRFK | 671
EEEEEHPPLPARRKS | 155
DDEDVPPQLPTRTKS | 97

What follows are binders tested against T19, Pin3, Q06449 (assay: SPOT array). Details: median of control spots 2171.

Binder | SPOT intensity
ISNFVPPNLPMRRFK | 217
EEEEEHPPLPARRKS | 0
DDEDVPPQLPTRTKS | 2

The binders below were run against Rvs167, P39743 (assay: SPOT array). Details: median of control spots 2707.
Rvs167, P39743, sequence (P39743 419-482): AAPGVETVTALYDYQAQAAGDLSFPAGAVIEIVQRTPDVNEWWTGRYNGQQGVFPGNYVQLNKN

Binder | SPOT intensity
ISNFVPPNLPMRRFK | 2140
EEEEEHPPLPARRKS | 222
DDEDVPPQLPTRTKS | 1260

Each binder was assayed against Sho1, P40073 (assay: SPOT array). Details: median of control spots 1148.
Sho1, P40073, sequence (P40073 287-367): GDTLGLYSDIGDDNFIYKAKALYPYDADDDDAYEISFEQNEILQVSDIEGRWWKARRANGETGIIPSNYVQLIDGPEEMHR

Binder | SPOT intensity
ISNFVPPNLPMRRFK | 65
EEEEEHPPLPARRKS | 0
DDEDVPPQLPTRTKS | 0

Each binder was assayed against T20, Sla1-2, P32790 (assay: SPOT array). Details: median of control spots 712.

Binder | SPOT intensity
ISNFVPPNLPMRRFK | 39
EEEEEHPPLPARRKS | 0
DDEDVPPQLPTRTKS | 0

What follows are binders tested against T21, Sla1-3, P32790 (assay: SPOT array). Details: median of control spots 5475.

Binder | SPOT intensity
ISNFVPPNLPMRRFK | 3
EEEEEHPPLPARRKS | 1
DDEDVPPQLPTRTKS | 1
